The source of these data is PMC3074190 (Molecular carcinogenesis, 2010).

The target of experiment [1] is β-catenin bait (BD fusion) (human) (UniProt P35222). Put plainly: two-hybrid.
The target in another experiment is T1, GST-β-catenin-S37A (human, UniProt P35222 1-781, S37A).
T1 sequence (looked up): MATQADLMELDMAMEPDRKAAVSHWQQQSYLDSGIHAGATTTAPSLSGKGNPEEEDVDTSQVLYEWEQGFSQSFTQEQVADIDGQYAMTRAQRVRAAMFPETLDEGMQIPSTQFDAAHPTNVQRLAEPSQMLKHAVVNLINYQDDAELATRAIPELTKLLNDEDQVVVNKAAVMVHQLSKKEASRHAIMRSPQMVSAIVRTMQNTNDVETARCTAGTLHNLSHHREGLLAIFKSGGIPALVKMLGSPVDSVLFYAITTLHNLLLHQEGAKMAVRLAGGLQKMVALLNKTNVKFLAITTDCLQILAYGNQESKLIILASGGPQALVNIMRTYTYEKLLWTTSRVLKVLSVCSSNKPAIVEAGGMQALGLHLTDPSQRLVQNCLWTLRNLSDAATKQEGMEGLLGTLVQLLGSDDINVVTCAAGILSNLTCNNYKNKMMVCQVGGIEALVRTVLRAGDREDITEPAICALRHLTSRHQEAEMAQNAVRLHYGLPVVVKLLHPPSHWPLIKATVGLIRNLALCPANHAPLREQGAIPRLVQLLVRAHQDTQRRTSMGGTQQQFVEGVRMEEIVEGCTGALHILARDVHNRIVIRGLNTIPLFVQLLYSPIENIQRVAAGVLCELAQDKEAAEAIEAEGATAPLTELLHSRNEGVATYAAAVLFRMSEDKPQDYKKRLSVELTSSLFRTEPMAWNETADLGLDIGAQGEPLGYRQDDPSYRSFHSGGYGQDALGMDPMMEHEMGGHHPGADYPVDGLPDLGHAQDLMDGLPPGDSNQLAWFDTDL
Put plainly: pull-down.

B1: VDR prey (AD fusion), wild type (natural protein)
chain: MEAMAASTSLPDPGDFDRNVPRICGVCGDRATGFHFNAMTCEGCKGFFRRSMKRKALFTCPFNGDCRITKDNRRHCQACRLKRCVDIGMMKEFILTDEEVQRKREMILKRKEEEALKDSLRPKLSEEQQRIIAILLDAHHKTYDPTYSDFCQFRPPVRVNDGGGSHPSRPNSRHTPSFSGDSSSSCSDHCITSSDMMDSSSFSNLDLSEEDSDDPSVTLELSQLSMLPHLADLVSYSIQKVIGFAKMIPGFRDLTSEDQIVLLKSSAIEVIMLRSNESFTMDDMSWTCGNQDYKYRVSDVTKAGHSLELIEPLIKFQVGLKKLNLHEEEHVLLMAICIVSPDRPGVQDAALIEAIQDRLSNTLQTYIRCRHPPPGSHLLYAKMIQKLADLRSLNEEHSKQYRCLSFQPECSMKLTPLVLEVFGNEIS
In experiment [1], B1 displayed a fold increase of the two-hybrid signal with 1,25D over vehicle of 12 fold and a fold increase of the two-hybrid signal with LCA over vehicle of 8 fold.

B2: VDR Δ1–88, N-terminally truncated VDR, 35S-methionine labelled (domain or fragment, human, UniProt P11473 89-427, looked up)
chain: MMKEFILTDEEVQRKREMILKRKEEEALKDSLRPKLSEEQQRIIAILLDAHHKTYDPTYSDFCQFRPPVRVNDGGGSHPSRPNSRHTPSFSGDSSSSCSDHCITSSDMMDSSSFSNLDLSEEDSDDPSVTLELSQLSMLPHLADLVSYSIQKVIGFAKMIPGFRDLTSEDQIVLLKSSAIEVIMLRSNESFTMDDMSWTCGNQDYKYRVSDVTKAGHSLELIEPLIKFQVGLKKLNLHEEEHVLLMAICIVSPDRPGVQDAALIEAIQDRLSNTLQTYIRCRHPPPGSHLLYAKMIQKLADLRSLNEEHSKQYRCLSFQPECSMKLTPLVLEVFGNEIS
modifications: 35S-methionine labelled
Turning to B2, the “band intensity with GST-β-catenin, fold over GST-only control” value with GST-β-catenin-S37A worked out at 7.1 fold.

B3: human vitamin D receptor, full-length wild type (F/M4 allele), 35S-methionine labelled (natural protein, UniProt P11473 4-427, looked up)
chain: MAASTSLPDPGDFDRNVPRICGVCGDRATGFHFNAMTCEGCKGFFRRSMKRKALFTCPFNGDCRITKDNRRHCQACRLKRCVDIGMMKEFILTDEEVQRKREMILKRKEEEALKDSLRPKLSEEQQRIIAILLDAHHKTYDPTYSDFCQFRPPVRVNDGGGSHPSRPNSRHTPSFSGDSSSSCSDHCITSSDMMDSSSFSNLDLSEEDSDDPSVTLELSQLSMLPHLADLVSYSIQKVIGFAKMIPGFRDLTSEDQIVLLKSSAIEVIMLRSNESFTMDDMSWTCGNQDYKYRVSDVTKAGHSLELIEPLIKFQVGLKKLNLHEEEHVLLMAICIVSPDRPGVQDAALIEAIQDRLSNTLQTYIRCRHPPPGSHLLYAKMIQKLADLRSLNEEHSKQYRCLSFQPECSMKLTPLVLEVFGNEIS
modifications: 35S-methionine labelled
In the case of B3, the “band intensity with GST-β-catenin, fold over GST-only control” value with GST-β-catenin-S37A is 8.3 fold.
